# Test results from paper PMC10686230 (The Journal of Cell Biology, 2023).
# B1: SMGL-1 (purified, GST tag cleaved) (natural protein, C. elegans, UniProt P90841 1-1615, looked up)
# chain: MAHMRGTNHEKEKHDDENSKILLKERYNLLKWLTNVEMRSPNVLIPVQIANYVESLPFCKLAVSPKCDRVAVMSYARQLDIYQISGEILTHESSVQVLEETSPEYCILQFSSSSTLILSSRSTPHIDVFDSMGAYLYDIPLELHEGIFDVNSAICGMQTFENYSSSSNDKFIEILYVLQYSGVFSAFKIGRLSKYVKMWTVQLDIGQTGSFTVLPQYNLLLVASHHKESTSLVPPAGLCSFRMMDMDPFVEPIRISTPDGGFFSRLPFSTSFMSYLPRMSLSFDSQLLVSVSTSGSLYLFEIPSLHVKFSFNFISGPRPVDACFVDSDEIAVIYDNGYLLRCSLEDLEEKMYSVKMRSKKEIDEEPELKDFYSEQTVMVSPAQREIFLLTADGDNSFLRKAAHKRVQLAGQLWFYTVWNSLKKLVGMAMGEPAEQLHFETHIAKFEFSLIHSPTRTLQELFDRTLKEHDYTRARELAETYDTIDIYVVLKSEWIDKCSKNKVTVEDVEDILKRIGDSEWAAEQCASADSDDFEVHKALIDLGLSLGESSVTWQIRLLHHWRMLEVCRIKGDVDIYMMARNGSCLDAALTFAHNGDIDSLTRIIESNMAVMKHHQKRILSAIPTCTSPTKYEILMPKREDGETEEQWELEEQNDGIYERLDKILMEHPDAESLIRSINVGNIPNEETFDFTSWVRETLPKIDFECGMTDICVNLLQIAYERGYEDLIHDLATWQPYAQYIRICSSVSESITSFQDSTMKSFTDRFSRLLDSELIKNAKDIVSLIEWKIKMTSSDSEESIEDRLRDAVTTLMKATNERTTKVLVAFRNELPSVVDDHVILEVLLNMTSTGADLMKSLGDLPVDKYVNVTSSLGSLMSRGVKMTFKSIFESMKEPDGARRVLIKLSRSGNCSNFDDWMSLRDDIYDMANGIYEDLVTTEEALEIFAGEILEEERIGSHPELMELVLTLNPKEDNSNPRKLSIAKSADVLLSKSDELMNEATQRGDPLLGRSRFFAVAARPISPKKSKEKLDWLDAIDAALELGCTMMPIAIKFCEHDSLLRDVVGLGSNYKQGKKILSFAKQLNIDTPIATALSYCALAALNANDAVYLSKYIGEVMKAKGVPVVHKLCMQIMNSSHVPTDMEDVYSCAVLNSSEENLLDTVDAIASSEKRLSESRRCREIRLDDIPVSEAVVGDPMYTPMRLYNARKEISGDVKQKITFYGKRNLWETNYGKREGFDVMKRLYAHESSTVALCFSLFEPAENVETGELSWTKNDKLRRYERGLRFFQDRVPLSDLVTAPASAIINEANKGDASITAIDRIEDYGCDRRRFIGDAEYRTETIIGLAGTENEQIFADALELAEKYEIDEWKLHMASLEYLLDPSYNVPIIDVKQIMKSRKHLSKLRTKLDEFHSRLRSMVLPSLETNEQFLSYISLFADAEPEKKLGDTIKKIISKMKNVEAIRLWTDAKYLSSTLNKIPDGNLRAIISSVLQFPKIGVKACEMSAEFLLEGDDTRPPSNPFTLFLLMRSNIEDFLELVANKKSRDDEIAYLDQAVILLENTPKVPPLLLDAIKMRSEKMHRATVTPEPATPSNGSSTGLSSYFSNTEDNSGMMKRRKN
# Target: the molecule itself
# Assay: SEC + SEC-MALS
protein,measurement,value
B1,stoichiometry N,4
